According to patent US8673848 (Novartis, dated 2014):
Bridges are numbered along the chain shown (N, C = ends). Where no end group is shown, it is not given here. [ ]: non-standard residue; d: D form. The star is where a group is joined. Palmitoyl = CCCCCCCCCCCCCCCC(=O)*; pGlu = O=C1CC[C@@H](C(=O)O)N1; NHPhenethyl = c1ccc(CCN*)cc1; Lauroyl = CCCCCCCCCCCC(=O)*; Nle = CCCC[C@H](N)C(=O)O; Orn = NCCC[C@H](N)C(=O)O; Api = NC1(C(=O)O)CCNCC1; AEEA = NCCOCCOCC(=O)O; Aib = CC(C)(N)C(=O)O; Inp = O=C(O)C1CCNCC1

T1: human APJ receptor (hAPJ) (human, UniProt P35414 1-380)
T1 sequence (looked up): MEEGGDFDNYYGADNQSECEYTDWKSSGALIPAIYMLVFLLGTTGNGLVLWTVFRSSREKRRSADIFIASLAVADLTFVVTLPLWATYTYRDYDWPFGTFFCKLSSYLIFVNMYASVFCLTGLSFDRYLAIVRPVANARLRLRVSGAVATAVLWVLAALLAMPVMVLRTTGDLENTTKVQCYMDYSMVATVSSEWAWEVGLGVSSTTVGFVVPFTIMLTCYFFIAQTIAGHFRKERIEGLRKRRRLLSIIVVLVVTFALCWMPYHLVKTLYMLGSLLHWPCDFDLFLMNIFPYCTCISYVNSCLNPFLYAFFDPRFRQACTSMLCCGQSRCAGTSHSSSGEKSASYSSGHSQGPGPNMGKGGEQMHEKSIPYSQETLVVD

B1: Example 3: pE-R-P-R-L-Orn-H-F-G-P-Nle-D-Phenethylamine (peptide)
peptide: [pGlu]RPRL[Orn]HFGP[Nle]D-Phenethylamine
modifications: lactam 6-12
B2: Example 31: pE-F-P-R-L-C-H-K-G-P-Nle-C-F-OH (peptide)
peptide: [pGlu]FPRLCHKGP[Nle]CF-OH
modifications: disulfide 6-12
SMILES: CCCC[C@@H]1NC(=O)[C@@H]2CCCN2C(=O)CNC(=O)[C@H](CCCCN)NC(=O)[C@H](Cc2c[nH]cn2)NC(=O)[C@@H](NC(=O)[C@H](CC(C)C)NC(=O)[C@H](CCCNC(=N)N)NC(=O)[C@@H]2CCCN2C(=O)[C@H](Cc2ccccc2)NC(=O)[C@@H]2CCC(=O)N2)CSSC[C@@H](C(=O)N[C@@H](Cc2ccccc2)C(=O)O)NC1=O
B3: Example 29: pE-R-C-R-L-C-C-K-G-P-Nle-C-F-OH (peptide)
peptide: [pGlu]RCRLCCKGP[Nle]CF-OH
modifications: disulfide 6-12, 3-7
B4: Example 25: Lauroyl-O2Oc-Q-R-P-R-L-C-H-K-G-P-Nle-C-F-OH (peptide)
peptide: Lauroyl-[AEEA]QRPRLCHKGP[Nle]CF-OH
modifications: disulfide 7-13
SMILES: CCCCCCCCCCCC(=O)NCCOCCOCC(=O)N[C@@H](CCC(N)=O)C(=O)N[C@@H](CCCNC(=N)N)C(=O)N1CCC[C@H]1C(=O)N[C@@H](CCCNC(=N)N)C(=O)N[C@@H](CC(C)C)C(=O)N[C@H]1CSSC[C@@H](C(=O)N[C@@H](Cc2ccccc2)C(=O)O)NC(=O)[C@H](CCCC)NC(=O)[C@@H]2CCCN2C(=O)CNC(=O)[C@H](CCCCN)NC(=O)[C@H](Cc2c[nH]cn2)NC1=O
B5: Example 22: pE-R-P-R-L-C-H-K-G-P-Nle-C-K(Palmitoyl)-OH (peptide)
peptide: [pGlu]RPRLCHKGP[Nle]CK(Palmitoyl)-OH
modifications: disulfide 6-12
SMILES: CCCCCCCCCCCCCCCC(=O)NCCCC[C@H](NC(=O)[C@@H]1CSSC[C@H](NC(=O)[C@H](CC(C)C)NC(=O)[C@H](CCCNC(=N)N)NC(=O)[C@@H]2CCCN2C(=O)[C@H](CCCNC(=N)N)NC(=O)[C@@H]2CCC(=O)N2)C(=O)N[C@@H](Cc2c[nH]cn2)C(=O)N[C@@H](CCCCN)C(=O)NCC(=O)N2CCC[C@H]2C(=O)N[C@@H](CCCC)C(=O)N1)C(=O)O
B6: Example 17: H-R-R-P-R-L-C-H-K-G-P-Nle-C-F-OH (peptide)
peptide: H-RRPRLCHKGP[Nle]CF-OH
modifications: disulfide 6-12
SMILES: CCCC[C@@H]1NC(=O)[C@@H]2CCCN2C(=O)CNC(=O)[C@H](CCCCN)NC(=O)[C@H](Cc2c[nH]cn2)NC(=O)[C@@H](NC(=O)[C@H](CC(C)C)NC(=O)[C@H](CCCNC(=N)N)NC(=O)[C@@H]2CCCN2C(=O)[C@H](CCCNC(=N)N)NC(=O)[C@@H](N)CCCNC(=N)N)CSSC[C@@H](C(=O)N[C@@H](Cc2ccccc2)C(=O)O)NC1=O
B7: Example 32: pE-E-P-R-L-C-H-K-G-P-Nle-C-F-OH (peptide)
peptide: [pGlu]EPRLCHKGP[Nle]CF-OH
modifications: disulfide 6-12
SMILES: CCCC[C@@H]1NC(=O)[C@@H]2CCCN2C(=O)CNC(=O)[C@H](CCCCN)NC(=O)[C@H](Cc2c[nH]cn2)NC(=O)[C@@H](NC(=O)[C@H](CC(C)C)NC(=O)[C@H](CCCNC(=N)N)NC(=O)[C@@H]2CCCN2C(=O)[C@H](CCC(=O)O)NC(=O)[C@@H]2CCC(=O)N2)CSSC[C@@H](C(=O)N[C@@H](Cc2ccccc2)C(=O)O)NC1=O
B8: Example 2: pE-R-P-R-L-K-H-F-G-P-Nle-E-Phenethylamine (peptide)
peptide: [pGlu]RPRLKHFGP[Nle]E
modifications: lactam 6-12 (inferred); not fully specified (C-terminus); printed as pE-R-P-R-L-K-H-F-G-P-Nle-E-Phenethylamine
B9: Example 19: pE-R-P-R-L-C-H-F-G-P-Nle-C-Phenethylamine (peptide)
peptide: [pGlu]RPRLCHFGP[Nle]C-NHPhenethyl
modifications: disulfide 6-12
SMILES: CCCC[C@@H]1NC(=O)[C@@H]2CCCN2C(=O)CNC(=O)[C@H](Cc2ccccc2)NC(=O)[C@H](Cc2c[nH]cn2)NC(=O)[C@@H](NC(=O)[C@H](CC(C)C)NC(=O)[C@H](CCCNC(=N)N)NC(=O)[C@@H]2CCCN2C(=O)[C@H](CCCNC(=N)N)NC(=O)[C@@H]2CCC(=O)N2)CSSC[C@@H](C(=O)NCCc2ccccc2)NC1=O
B10: Example 23: pE-R-P-R-L-C-K(Palmitoyl)-K-G-P-Nle-C-F-OH (peptide)
peptide: [pGlu]RPRLCK(Palmitoyl)KGP[Nle]CF-OH
modifications: disulfide 6-12
SMILES: CCCCCCCCCCCCCCCC(=O)NCCCC[C@@H]1NC(=O)[C@@H](NC(=O)[C@H](CC(C)C)NC(=O)[C@H](CCCNC(=N)N)NC(=O)[C@@H]2CCCN2C(=O)[C@H](CCCNC(=N)N)NC(=O)[C@@H]2CCC(=O)N2)CSSC[C@@H](C(=O)N[C@@H](Cc2ccccc2)C(=O)O)NC(=O)[C@H](CCCC)NC(=O)[C@@H]2CCCN2C(=O)CNC(=O)[C@H](CCCCN)NC1=O
B11: Example 21: pE-R-P-R-L-C-H-(4-NH-Isn)-G-P-Nle-C-F-OH (peptide)
peptide: [pGlu]RPRLCH[Api]GP[Nle]CF-OH
modifications: disulfide 6-12
SMILES: CCCC[C@@H]1NC(=O)[C@@H]2CCCN2C(=O)CNC(=O)C2(CCNCC2)NC(=O)[C@H](Cc2c[nH]cn2)NC(=O)[C@@H](NC(=O)[C@H](CC(C)C)NC(=O)[C@H](CCCNC(=N)N)NC(=O)[C@@H]2CCCN2C(=O)[C@H](CCCNC(=N)N)NC(=O)[C@@H]2CCC(=O)N2)CSSC[C@@H](C(=O)N[C@@H](Cc2ccccc2)C(=O)O)NC1=O
B12: Example 24: Palmitoyl-O2Oc-Q-R-P-R-L-C-H-K-G-P-Nle-C-F-OH (peptide)
peptide: Palmitoyl-[AEEA]QRPRLCHKGP[Nle]CF-OH
modifications: disulfide 7-13
SMILES: CCCCCCCCCCCCCCCC(=O)NCCOCCOCC(=O)N[C@@H](CCC(N)=O)C(=O)N[C@@H](CCCNC(=N)N)C(=O)N1CCC[C@H]1C(=O)N[C@@H](CCCNC(=N)N)C(=O)N[C@@H](CC(C)C)C(=O)N[C@H]1CSSC[C@@H](C(=O)N[C@@H](Cc2ccccc2)C(=O)O)NC(=O)[C@H](CCCC)NC(=O)[C@@H]2CCCN2C(=O)CNC(=O)[C@H](CCCCN)NC(=O)[C@H](Cc2c[nH]cn2)NC1=O
B13: Example 18: H-Isn-R-P-R-L-C-H-K-G-P-Nle-C-F-OH (peptide)
peptide: H-[Inp]RPRLCHKGP[Nle]CF-OH
modifications: disulfide 6-12
SMILES: CCCC[C@@H]1NC(=O)[C@@H]2CCCN2C(=O)CNC(=O)[C@H](CCCCN)NC(=O)[C@H](Cc2c[nH]cn2)NC(=O)[C@@H](NC(=O)[C@H](CC(C)C)NC(=O)[C@H](CCCNC(=N)N)NC(=O)[C@@H]2CCCN2C(=O)[C@H](CCCNC(=N)N)NC(=O)C2CCNCC2)CSSC[C@@H](C(=O)N[C@@H](Cc2ccccc2)C(=O)O)NC1=O
B14: Example 20: pE-R-P-R-L-C-H-K-Aib-P-Nle-C-F-OH (peptide)
peptide: [pGlu]RPRLCHK[Aib]P[Nle]CF-OH
modifications: disulfide 6-12
SMILES: CCCC[C@@H]1NC(=O)[C@@H]2CCCN2C(=O)C(C)(C)NC(=O)[C@H](CCCCN)NC(=O)[C@H](Cc2c[nH]cn2)NC(=O)[C@@H](NC(=O)[C@H](CC(C)C)NC(=O)[C@H](CCCNC(=N)N)NC(=O)[C@@H]2CCCN2C(=O)[C@H](CCCNC(=N)N)NC(=O)[C@@H]2CCC(=O)N2)CSSC[C@@H](C(=O)N[C@@H](Cc2ccccc2)C(=O)O)NC1=O
B15: Example 33: pE-R-p-R-L-C-H-K-G-P-Nle-C-F-OH (peptide)
peptide: [pGlu]R[dP]RLCHKGP[Nle]CF-OH
modifications: disulfide 6-12
SMILES: CCCC[C@@H]1NC(=O)[C@@H]2CCCN2C(=O)CNC(=O)[C@H](CCCCN)NC(=O)[C@H](Cc2c[nH]cn2)NC(=O)[C@@H](NC(=O)[C@H](CC(C)C)NC(=O)[C@H](CCCNC(=N)N)NC(=O)[C@H]2CCCN2C(=O)[C@H](CCCNC(=N)N)NC(=O)[C@@H]2CCC(=O)N2)CSSC[C@@H](C(=O)N[C@@H](Cc2ccccc2)C(=O)O)NC1=O
B16: Example 26: pE-R-P-R-L-C-H-K-G-P-Nle-C-K(Lauroyl)-OH (peptide)
peptide: [pGlu]RPRLCHKGP[Nle]CK(Lauroyl)-OH
modifications: disulfide 6-12
SMILES: CCCCCCCCCCCC(=O)NCCCC[C@H](NC(=O)[C@@H]1CSSC[C@H](NC(=O)[C@H](CC(C)C)NC(=O)[C@H](CCCNC(=N)N)NC(=O)[C@@H]2CCCN2C(=O)[C@H](CCCNC(=N)N)NC(=O)[C@@H]2CCC(=O)N2)C(=O)N[C@@H](Cc2c[nH]cn2)C(=O)N[C@@H](CCCCN)C(=O)NCC(=O)N2CCC[C@H]2C(=O)N[C@@H](CCCC)C(=O)N1)C(=O)O
B17: Example 30: pE-r-P-R-L-C-H-K-G-P-Nle-C-F-OH (peptide)
peptide: [pGlu][dR]PRLCHKGP[Nle]CF-OH
modifications: disulfide 6-12
SMILES: CCCC[C@@H]1NC(=O)[C@@H]2CCCN2C(=O)CNC(=O)[C@H](CCCCN)NC(=O)[C@H](Cc2c[nH]cn2)NC(=O)[C@@H](NC(=O)[C@H](CC(C)C)NC(=O)[C@H](CCCNC(=N)N)NC(=O)[C@@H]2CCCN2C(=O)[C@@H](CCCNC(=N)N)NC(=O)[C@@H]2CCC(=O)N2)CSSC[C@@H](C(=O)N[C@@H](Cc2ccccc2)C(=O)O)NC1=O
B18: Example 28: pE-R-P-C-L-C-C-K-G-P-Nle-C-F-OH (peptide)
peptide: [pGlu]RPCLCCKGP[Nle]CF-OH
modifications: disulfide 6-12, 4-7
B19: Example 27: pE-R-P-R-L-C-K(Lauroyl)-K-G-P-Nle-C-F-OH (peptide)
peptide: [pGlu]RPRLCK(Lauroyl)KGP[Nle]CF-OH
modifications: disulfide 6-12
SMILES: CCCCCCCCCCCC(=O)NCCCC[C@@H]1NC(=O)[C@@H](NC(=O)[C@H](CC(C)C)NC(=O)[C@H](CCCNC(=N)N)NC(=O)[C@@H]2CCCN2C(=O)[C@H](CCCNC(=N)N)NC(=O)[C@@H]2CCC(=O)N2)CSSC[C@@H](C(=O)N[C@@H](Cc2ccccc2)C(=O)O)NC(=O)[C@H](CCCC)NC(=O)[C@@H]2CCCN2C(=O)CNC(=O)[C@H](CCCCN)NC1=O

Target: T1, human APJ receptor (hAPJ)
Assay: cell-based or functional assay

Binder	hAPJ Ca2+ Flux EC50 [nM]
B1	1010
B2	84.1
B3	4.33
B4	24.5
B5	42
B6	3.29
B7	518
B8	133
B9	8.46
B10	52.4
B11	75.8
B12	32.6
B13	1.62
B14	173
B15	8.1
B16	29.8
B17	6.05
B18	5.68
B19	65.5
